# Numbered stars: 1 amine (or outer) side, 2 acyl side, 3 side chain; on linkers, the order of the positions; unused ones are H or OH. Square brackets hold non-standard residues; d marks the D form. Side chains are listed from the residue outwards. Ends that are not written are not given here. * marks the point of attachment. C18 diacid = O=C(O)CCCCCCCCCCCCCCCCC(=O)*; γGlu = O=C(O)[C@H](CCC(=O)[*:2])N[*:1]; AEEA = NCCOCCOCC(=O)O; Aib = CC(C)(N)C(=O)O
# T1: human gastric inhibitory peptide receptor (GIPR) (human, UniProt P48546 22-466)
# T1 sequence (looked up): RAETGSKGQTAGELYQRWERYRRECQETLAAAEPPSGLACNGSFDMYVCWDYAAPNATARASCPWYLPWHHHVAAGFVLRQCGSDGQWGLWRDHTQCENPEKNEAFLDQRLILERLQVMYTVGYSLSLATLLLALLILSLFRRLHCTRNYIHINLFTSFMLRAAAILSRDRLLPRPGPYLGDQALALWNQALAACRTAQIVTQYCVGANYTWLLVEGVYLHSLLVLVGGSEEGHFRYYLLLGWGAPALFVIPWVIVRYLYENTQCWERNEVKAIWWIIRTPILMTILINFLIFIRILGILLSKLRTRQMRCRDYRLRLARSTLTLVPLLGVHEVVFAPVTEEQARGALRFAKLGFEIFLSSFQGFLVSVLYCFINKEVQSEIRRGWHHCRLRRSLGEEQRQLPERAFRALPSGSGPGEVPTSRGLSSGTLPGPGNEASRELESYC
# B1: Example 293 (peptide)
# peptide: XXEGTFTSDYSIXLDXKAQXEFIEXLIAGGPSSGAPPPS
# modifications: D-Tyr1, Aib2, αMeL13, Orn16, (2-[2-(2-Amino-ethoxy)-ethoxy]-acetyl)2-(γ-Glu)-CO-(CH2)18-CO2H on K17, Aib20, αMeY25, C-terminal NH2
# B2: Example 294 (peptide)
# peptide: Y[Aib]EGTFTSDYSILLDKK([AEEA-AEEA-γGlu-C18 diacid])AQQAFIEYLIEGG-NH2
# modifications: N-terminus assumed
# SMILES: CC[C@H](C)[C@H](NC(=O)[C@H](CC(C)C)NC(=O)[C@H](Cc1ccc(O)cc1)NC(=O)[C@H](CCC(=O)O)NC(=O)[C@@H](NC(=O)[C@H](Cc1ccccc1)NC(=O)[C@H](C)NC(=O)[C@H](CCC(N)=O)NC(=O)[C@H](CCC(N)=O)NC(=O)[C@H](C)NC(=O)[C@H](CCCCNC(=O)COCCOCCNC(=O)COCCOCCNC(=O)CC[C@H](NC(=O)CCCCCCCCCCCCCCCCC(=O)O)C(=O)O)NC(=O)[C@H](CCCCN)NC(=O)[C@H](CC(=O)O)NC(=O)[C@H](CC(C)C)NC(=O)[C@H](CC(C)C)NC(=O)[C@@H](NC(=O)[C@H](CO)NC(=O)[C@H](Cc1ccc(O)cc1)NC(=O)[C@H](CC(=O)O)NC(=O)[C@H](CO)NC(=O)[C@@H](NC(=O)[C@H](Cc1ccccc1)NC(=O)[C@@H](NC(=O)CNC(=O)[C@H](CCC(=O)O)NC(=O)C(C)(C)NC(=O)[C@@H](N)Cc1ccc(O)cc1)[C@@H](C)O)[C@@H](C)O)[C@@H](C)CC)[C@@H](C)CC)C(=O)N[C@@H](CCC(=O)O)C(=O)NCC(=O)NCC(N)=O
# B3: Example 295 (peptide)
# peptide: Y[Aib]EGTFTSDYSILLDKK([AEEA-AEEA-γGlu-C18 diacid])AQHAFIEYLIEGG-NH2
# modifications: N-terminus assumed
# SMILES: CC[C@H](C)[C@H](NC(=O)[C@H](CC(C)C)NC(=O)[C@H](Cc1ccc(O)cc1)NC(=O)[C@H](CCC(=O)O)NC(=O)[C@@H](NC(=O)[C@H](Cc1ccccc1)NC(=O)[C@H](C)NC(=O)[C@H](Cc1c[nH]cn1)NC(=O)[C@H](CCC(N)=O)NC(=O)[C@H](C)NC(=O)[C@H](CCCCNC(=O)COCCOCCNC(=O)COCCOCCNC(=O)CC[C@H](NC(=O)CCCCCCCCCCCCCCCCC(=O)O)C(=O)O)NC(=O)[C@H](CCCCN)NC(=O)[C@H](CC(=O)O)NC(=O)[C@H](CC(C)C)NC(=O)[C@H](CC(C)C)NC(=O)[C@@H](NC(=O)[C@H](CO)NC(=O)[C@H](Cc1ccc(O)cc1)NC(=O)[C@H](CC(=O)O)NC(=O)[C@H](CO)NC(=O)[C@@H](NC(=O)[C@H](Cc1ccccc1)NC(=O)[C@@H](NC(=O)CNC(=O)[C@H](CCC(=O)O)NC(=O)C(C)(C)NC(=O)[C@@H](N)Cc1ccc(O)cc1)[C@@H](C)O)[C@@H](C)O)[C@@H](C)CC)[C@@H](C)CC)C(=O)N[C@@H](CCC(=O)O)C(=O)NCC(=O)NCC(N)=O
# B4: Example 296 (peptide)
# peptide: Y[Aib]EGTFTSDYSILLDKK([AEEA-AEEA-γGlu-C18 diacid])AQKAFIEYLIEGGPSSG-NH2
# modifications: N-terminus assumed
# SMILES: CC[C@H](C)[C@H](NC(=O)[C@H](CC(C)C)NC(=O)[C@H](Cc1ccc(O)cc1)NC(=O)[C@H](CCC(=O)O)NC(=O)[C@@H](NC(=O)[C@H](Cc1ccccc1)NC(=O)[C@H](C)NC(=O)[C@H](CCCCN)NC(=O)[C@H](CCC(N)=O)NC(=O)[C@H](C)NC(=O)[C@H](CCCCNC(=O)COCCOCCNC(=O)COCCOCCNC(=O)CC[C@H](NC(=O)CCCCCCCCCCCCCCCCC(=O)O)C(=O)O)NC(=O)[C@H](CCCCN)NC(=O)[C@H](CC(=O)O)NC(=O)[C@H](CC(C)C)NC(=O)[C@H](CC(C)C)NC(=O)[C@@H](NC(=O)[C@H](CO)NC(=O)[C@H](Cc1ccc(O)cc1)NC(=O)[C@H](CC(=O)O)NC(=O)[C@H](CO)NC(=O)[C@@H](NC(=O)[C@H](Cc1ccccc1)NC(=O)[C@@H](NC(=O)CNC(=O)[C@H](CCC(=O)O)NC(=O)C(C)(C)NC(=O)[C@@H](N)Cc1ccc(O)cc1)[C@@H](C)O)[C@@H](C)O)[C@@H](C)CC)[C@@H](C)CC)C(=O)N[C@@H](CCC(=O)O)C(=O)NCC(=O)NCC(=O)N1CCC[C@H]1C(=O)N[C@@H](CO)C(=O)N[C@@H](CO)C(=O)NCC(N)=O
# B5: Example 297 (peptide)
# peptide: Y[Aib]EGTFTSDYSILLDKK([AEEA-AEEA-γGlu-C18 diacid])AQ[Aib]EFIEYLIAGG-NH2
# modifications: N-terminus assumed
# SMILES: CC[C@H](C)[C@H](NC(=O)[C@H](CC(C)C)NC(=O)[C@H](Cc1ccc(O)cc1)NC(=O)[C@H](CCC(=O)O)NC(=O)[C@@H](NC(=O)[C@H](Cc1ccccc1)NC(=O)[C@H](CCC(=O)O)NC(=O)C(C)(C)NC(=O)[C@H](CCC(N)=O)NC(=O)[C@H](C)NC(=O)[C@H](CCCCNC(=O)COCCOCCNC(=O)COCCOCCNC(=O)CC[C@H](NC(=O)CCCCCCCCCCCCCCCCC(=O)O)C(=O)O)NC(=O)[C@H](CCCCN)NC(=O)[C@H](CC(=O)O)NC(=O)[C@H](CC(C)C)NC(=O)[C@H](CC(C)C)NC(=O)[C@@H](NC(=O)[C@H](CO)NC(=O)[C@H](Cc1ccc(O)cc1)NC(=O)[C@H](CC(=O)O)NC(=O)[C@H](CO)NC(=O)[C@@H](NC(=O)[C@H](Cc1ccccc1)NC(=O)[C@@H](NC(=O)CNC(=O)[C@H](CCC(=O)O)NC(=O)C(C)(C)NC(=O)[C@@H](N)Cc1ccc(O)cc1)[C@@H](C)O)[C@@H](C)O)[C@@H](C)CC)[C@@H](C)CC)C(=O)N[C@@H](C)C(=O)NCC(=O)NCC(N)=O
# B6: Example 298 (peptide)
# peptide: Y[Aib]EGTFTSDYSILLDKK([AEEA-AEEA-γGlu-C18 diacid])AQ[Aib]AFVEYLIEGGPSSG-NH2
# modifications: N-terminus assumed
# SMILES: CC[C@H](C)[C@H](NC(=O)[C@H](CC(C)C)NC(=O)[C@H](Cc1ccc(O)cc1)NC(=O)[C@H](CCC(=O)O)NC(=O)[C@@H](NC(=O)[C@H](Cc1ccccc1)NC(=O)[C@H](C)NC(=O)C(C)(C)NC(=O)[C@H](CCC(N)=O)NC(=O)[C@H](C)NC(=O)[C@H](CCCCNC(=O)COCCOCCNC(=O)COCCOCCNC(=O)CC[C@H](NC(=O)CCCCCCCCCCCCCCCCC(=O)O)C(=O)O)NC(=O)[C@H](CCCCN)NC(=O)[C@H](CC(=O)O)NC(=O)[C@H](CC(C)C)NC(=O)[C@H](CC(C)C)NC(=O)[C@@H](NC(=O)[C@H](CO)NC(=O)[C@H](Cc1ccc(O)cc1)NC(=O)[C@H](CC(=O)O)NC(=O)[C@H](CO)NC(=O)[C@@H](NC(=O)[C@H](Cc1ccccc1)NC(=O)[C@@H](NC(=O)CNC(=O)[C@H](CCC(=O)O)NC(=O)C(C)(C)NC(=O)[C@@H](N)Cc1ccc(O)cc1)[C@@H](C)O)[C@@H](C)O)[C@@H](C)CC)C(C)C)C(=O)N[C@@H](CCC(=O)O)C(=O)NCC(=O)NCC(=O)N1CCC[C@H]1C(=O)N[C@@H](CO)C(=O)N[C@@H](CO)C(=O)NCC(N)=O
# Target: T1, human gastric inhibitory peptide …
# Assay: cell-based or functional assay
Binder,hGIPR cAMP EC50 ratio,hGIPR cAMP Rel EC50 [nM]
B1,1.36,0.0562
B2,0.75,0.183
B3,0.481,0.281
B4,0.564,0.198
B5,3,0.0451
B6,2.87,0.043

# Target: human GLP-1 receptor (GLP-1R) (human, UniProt P43220 24-463)
# Assay: cell-based or functional assay
Binder,hGLP1R cAMP EC50 ratio,hGLP1R cAMP Rel EC50 [nM]
B1,0.197,0.132
B2,0.249,0.185
B3,0.398,0.116
B4,0.82,0.0867
B5,0.445,0.111
B6,0.507,0.0957
